In PMC2082060:

Target: GST-endophilin I (recombinant) (UniProt O35179)
Test: sequential GST pull-down, 32P autoradiography
Conditions: reference: total dynamin I of the lysate; sites S774,S778

other: phospho/total bound dynamin I, % of AmphI-SH3 control: 91%
Substance: dynamin I (from UniProt P21575) 32P-labelled phospho-dynamin I of same lysate
